Numbering of substitutions follows the chain as printed.
T1: human B7-H3 (4Ig-B7-H3 variant) (Homo sapiens, UniProt Q5ZPR3)
T1 construct: His tag (6xHis) (C)
T1 sequence (Q5ZPR3 with tags, fused parts or gaps): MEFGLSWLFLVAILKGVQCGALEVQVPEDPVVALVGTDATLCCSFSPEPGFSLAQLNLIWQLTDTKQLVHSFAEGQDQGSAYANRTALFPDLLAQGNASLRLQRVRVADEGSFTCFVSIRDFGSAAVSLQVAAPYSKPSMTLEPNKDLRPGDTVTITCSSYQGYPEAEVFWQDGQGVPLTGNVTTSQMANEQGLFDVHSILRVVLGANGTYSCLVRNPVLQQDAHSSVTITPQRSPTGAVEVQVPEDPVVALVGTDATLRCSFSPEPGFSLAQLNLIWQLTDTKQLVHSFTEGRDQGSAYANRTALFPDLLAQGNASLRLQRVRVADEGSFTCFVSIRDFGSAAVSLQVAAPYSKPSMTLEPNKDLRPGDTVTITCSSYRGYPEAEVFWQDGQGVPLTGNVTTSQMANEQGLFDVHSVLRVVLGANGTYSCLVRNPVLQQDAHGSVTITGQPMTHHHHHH

B1: Ab13: mouse hybridoma derived anti-B7-H3 monoclonal antibodies (mAbs) (antibody, V domains shown)
VH: DVQLQESGPDLVKPSQSLSLTCTVTGYSITSGYSWHWIRQFPGNKLEWMGYIHSSGSTNYNPSLKSRISINRDTSKNQFFLQLNSVTTEDTATYYCAGYDDYFEYWGQGTTLTVSS
VL: DIVMTQSQKFMSTSVGDRVSVTCKASQNVGFNVAWYQQKPGQSPKALIYSASYRYSGVPDRFTGSGSGTDFTLTISNVQSEDLAEYFCQQYNSYPFTFGSGTKLEIK
B2: Ab5: murine anti-B7-H3 mAbs; mouse hybridoma derived (antibody, V domains shown)
VH: QVQLQQPGDELVKPGASVKLSCKTSGYTFTTDWMHWVKQRPGQGLEWIGMIHPNSGTTNYNEKFKSKAALTVDKSSSTACMQLSSLTSEDSAVYYCARSYWKWYFDVWGTGTTVTVSS
VL: QIVLTQSPAIMSASLGEEITLTCSASSSVSYMHWYQQKSGTSPKLLIYSTSNLASGVPSRFSGSGSGTFYSLTISSVEAEDSADYYCHQWTSYMYTFGGGTKLEIK
B3: Ab18: the murine monoclonal Ab18 (antibody, V domains shown)
VH: QVQLQQSAAELARPGASVKMSCKASGYSFTSYTIHWVKQRPGQGLEWIGYINPNSRNTDYNQKFKDETTLTADRSSSTAYMQLISLTSEDSAVYYCARYSGSTPYWYFDVWGAGTTVTVSS
VL: QIVLTQSPAILSASPGEKVTMTCRASSSVSYMNWYQQKPGSSPKPWIYATSNLASGVPARFSVSVSGTSHSLTISRVEAEDAATYYCQQWSSNPLTFGAGTKLELK
B4: Ab14: mouse hybridoma derived anti-B7-H3 monoclonal antibodies (mAbs) (antibody, V domains shown)
VH: EVKLVESGGGLVKPGGSLKLSCAASGFTFSSYGMSWVRQTPEKRLEWVATISGGGTNTYYPDSVEGRFTISRDNAKNFLYLQMSSLRSEDTALYYCARHYGSQTMDYWGQGTSVTVSS
VL: DIQMTQSPASLSASVGETVTITCRTSGNIHNYLTWYQQKQGKSPQLLVYNAKTLADGVPSRFSGSGSGTQFSLKINSLQPEDFGSYYCQHFWSIMWTFGGGTKLEIK
B5: Ab8: murine anti-B7-H3 mAbs; mouse hybridoma derived (antibody, V domains shown)
VH: EVKLVESGGGLVKPGGSLKLSCAASGFTFSSYGMSWVRQTPEKRLEWVATISGGGNYTYCPDSVKGRFTISRDNAKNNLYLQMSSLRSEDTALYYCTRQRGYDYHYAMDFWGQGTSVTVSS
VL: DIQMTQSPASLSVSVGETVTITCRASENIYSNLAWHQQKQGKSPQLLVYAATNLADGVPSRFSGNGSDTQYSLKINSLQSEDFGSYFCQNFWGTSWTFGGGTKLEIK
B6: Ab11: murine anti-B7-H3 mAbs; mouse hybridoma derived (antibody, V domains shown)
VH: EVKLVESGGGLVQPGGSLRLSCATSGFTFTNYYMSWVRQPPGKALEWLGFIRNKANDYTTEYSASVKGRFTISRDNSQSILYLQMNTLRAEDSATYYCARESPGNPFAYWGQGTLVTVSA
VL: DIVMTQSPSSLTVTAGEKVTMTCKSSQSLLNSGTQKNFLTWYQQKPGQPPKLLIYWASTRESGVPDRFTGSGSGTDFTLTISSVQAEDLAVYFCQNDYIYPLTFGAGTKLELK
B7: Ab12: murine anti-B7-H3 mAbs; mouse hybridoma derived (antibody, V domains shown)
VH: EVQLVESGGGLVKPGGSLKLSCAASGFTFSSYAMSWVRQTPEKRLEWVATISSGTNYTYYPDSVKGRFTISRDNAKNTLYLQMTSLRSEDTAMYYCARQGRYSWIAYWGQGTLVTVSA
VL: DIVLTQSPASLAVSLGQRATISCRASKSVSTSDYSYMHWNQQKPGQPPKLLIYLASNLESGVPARFSGSGSGTDFTLNIHPVEEEDAATYYCQHSRELLTFGAGTKLELK
B8: Ab4: murine anti-B7-H3 mAbs; mouse hybridoma derived (antibody, V domains shown)
VH: QVQLQQPGAELVKPGASVKLSCKASGYSFTSYWMHWVKQRPGQGLEWIGMIHPNSGSNNYNEKFKSKATLTVDKSSNTAYMQLSSLTSEDSAVYYCARRLGLHFDYWGQGTTLTVSS
VL: DIVMTQSQKFMSTPVGDRVSITCKASQNVGTAVAWYQQKPGQSPKLLIYSASNRYTGVPDRFTGSGSGTDFTLTISNMQSEDLADYFCQQYSSYPYTFGGGTKLEIK
B9: Ab16: mouse hybridoma derived anti-B7-H3 monoclonal antibodies (mAbs) (antibody, V domains shown)
VH: EVKLLESGGGLVQPGGSLKLSCAASGFDFSRYWMSWVRQAPGKGLEWIGEINPDSSTINYTPSLKDKFIISRDNAKNTLYLQMSKVRSEDTALYYCARPGFGNYIYAMDYWGQGTSVTVSS
VL: DIQMTQTTSSLSASLGDRVTINCRASQDISNFLNWYQQKPDGTVKLLIYYTSRLYLGVPSRFSGSGSGTDYSLTISNLEQEDIATYFCQQGNTLPPTFGGGTKLEIK
B10: Ab10: mouse hybridoma derived anti-B7-H3 monoclonal antibodies (mAbs) (antibody, V domains shown)
VH: DVQLQESGPGLVKPSQSLSLTCTVTGYSITSDYAWNWIRQFPGNRLEWMGHINYSGITNYNPSLKSRISITRDTSKNQFFLQLYSVTTEDTATYFCARRSLFYYYGSSLYAMDYWGQGTSVTVSS
VL: DVVMTQSPFSLPVSLGDQASISCRSSQSLVHSNGNTYLHWYLQKPGQSPKLLIYKVSNRFSGVPDRFSGSGSGTDFTLKISRVEAEDLGVYFCSQSTHVPWTFGGGTKLEIK
B11: Ab3: murine anti-B7-H3 mAbs; mouse hybridoma derived (antibody, V domains shown)
VH: QVQLQQPGAELVKPGASVKLSCKASGYTFSSYWMHWVKQRPGQGLEWIGLIHPDSGSTNYNEMFKNKATLTVDRSSSTAYVQLSSLTSEDSAVYFCAGGGRLYFDYWGQGTTLTVSS
VL: B10 VL with S7T, F9L, N35D, H39R, S81T, W101Y
B12: Ab2: mouse hybridoma derived anti-B7-H3 monoclonal antibodies (mAbs) (antibody, V domains shown)
VH: QVQLQQPGAELVKPGASVKLSCKASGYTFTSYWMHWVKQRPGQGLEWIGMIHPDSGTTNYNEKFRSKATLTVDKSSSTAYMQLSSLTSEDSAVYYCAVYYGSTYWYFDVWGTGTTVTVSS
VL: B10 VL with S7T, F9L, S20Y, S32I, L42R, V99F, W101F, G105S

Assays:
[1] = target: T1, human B7-H3 (4Ig-B7-H3 variant); experiment: Biacore T200 SPR binding kinetics, mAb capture, soluble ECD of human B7-H3; conditions: 1:1 binding model
Experimental: (§1) The binding affinity of the purified anti-B7-H3 monoclonal antibodies was determined by surface […]. […] The binding kinetics were derived from SPR measurements using a Biacore T200 instrument and a mAb capture approach (as described in the materials and methods below).
(§2) Biacore T200 SPR instruments were used to measure the binding kinetics of human B7-H3 (4Ig-B7-H3 variant) (analyte) binding to various mAbs (ligands). The assay format was Fc-based capture via immobilized anti-mouse (Fc) (Pierce 31170) or immobilized anti-human (Fc) (Pierce 31125). A standard amine coupling protocol was employed to immobilize the capture reagents via primary amines to the carboxy-methyl (CM) dextran surface of CM5 sensorchips (Biacore); capture antibodies were coupled to a level of approximately 5000RU. For binding kinetic measurements the assay buffer was HBS-EP+ (Biacore): 10 mM Hepes, pH7.4, 150 mM NaCl, 3 mM EDTA, 0.05% polysorbate 20. During the assay, all measurements were referenced against the capture surface alone. Each assay cycle consisted of the following steps: 1) Capture of ligand to approximately 50RU; 2) Analyte injection over both reference and test surface, 240 μL at 80 μL/min, after which the dissociation was monitored for 900 seconds at 80 μL/min; 3) Regeneration of capture surface with low pH glycine. For kinetic determinations analyte injections were 3-point, 9-fold dilution series of 900 nM, 100 nM and 11.11 nM, buffer only injections were included for secondary referencing. Data were processed and fit to a 1:1 binding model using Biacore T200 Evaluation Software to determine the binding kinetic rate constants, ka (on-rate) and kd (off-rate), and the equilibrium dissociation constant (affinity, KD).

[2] = system: cyno B7-H3; experiment: Biacore T200 SPR binding kinetics, mAb capture, soluble ECD of cyno B7-H3; set-up: species or system cynomolgus monkey; conditions: 1:1 binding model
Sequence of cyno B7-H3 (as listed by the source): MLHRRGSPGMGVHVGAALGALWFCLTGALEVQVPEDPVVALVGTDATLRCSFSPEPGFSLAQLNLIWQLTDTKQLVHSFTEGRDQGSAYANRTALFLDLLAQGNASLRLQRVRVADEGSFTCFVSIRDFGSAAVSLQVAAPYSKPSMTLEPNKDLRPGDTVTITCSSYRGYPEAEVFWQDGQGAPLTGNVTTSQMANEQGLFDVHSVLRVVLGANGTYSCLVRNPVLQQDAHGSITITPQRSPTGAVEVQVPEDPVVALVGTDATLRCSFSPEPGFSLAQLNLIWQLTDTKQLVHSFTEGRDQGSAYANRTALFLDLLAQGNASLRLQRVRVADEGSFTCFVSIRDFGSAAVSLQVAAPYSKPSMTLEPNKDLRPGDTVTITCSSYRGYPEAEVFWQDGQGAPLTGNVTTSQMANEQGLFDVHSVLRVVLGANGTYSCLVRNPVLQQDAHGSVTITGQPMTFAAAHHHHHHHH
Experimental: [The source words this procedure for another species and reports this species under the same test.] as §1, §2

Molecule | ka (1/Ms) huB7-H3 [1] [M⁻¹ s⁻¹] | kd (1/s) huB7-H3 [1] [s⁻¹] | ka (1/Ms) cynoB7-H3 [2] [M⁻¹ s⁻¹] | kd (1/s) cynoB7-H3 [2] [s⁻¹]
B1 | 330000 | 0.0058 | 440000 | 0.0037
B2 | 1.3e+06 | 0.012 | 1.4e+06 | 0.28
B3 | 210000 | 3.6e-05 | 240000 | 2.9e-05
B4 | 110000 | 0.0014 | 690000 | 0.003
B5 | 58000 | 9.9e-05 | 160000 | 0.00026
B6 | 20000 | 0.00089 | 27000 | 7.2e-05
B7 | 38000 | 0.00025 | 55000 | 1e-05
B8 | 690000 | 0.0011 | 540000 | 0.00096
B9 | 140000 | 0.0032 | 750000 | 0.0056
B10 | 41000 | 0.00019 | 200000 | 0.0042
B11 | 520000 | 0.01 | 380000 | 0.01
B12 | 120000 | 0.0029 | 230000 | 0.011
